Source: patent CN112063765A

Assays:
[1] = molecular target: H1N1特异性的表位肽 (SEQ ID NO:4) (Influenza A virus H1N1)
[2] = molecular target: H1N1特异性的表位肽 (SEQ ID NO:4) (Influenza A virus H1N1); test: indirect ELISA, titre of purified ascites antibody

B1: 3E6单克隆抗体 (antibody, V domains shown)
VH: EVQLEESGTELARPGASVKLALKASGYIFSSYSGQWIKQRPGAGLELIGYPYPGWIDTRYTQKLTGKATLTADKSSSTLYMQLSSLASEDSAVAYCAGSYFSSDAWGLGTTLAVSS
VL: DIVLTQSPALMAASAGEKVTITCAVSQSIQSGYLAWYQQKSGISPKPWIYDTSNQAGGVPARFSGAGSGTSYSLTITSMEAEDAATYYCAQGTTSPLSFGAGTKLELK
Kd [1]: 0.48 nM
OD492 at dilution 1:1000 [2]: 4.91 OD492
OD492 at dilution 1:10000 [2]: 1.89 OD492
OD492 at dilution 1:100000 [2]: 0.455 OD492
OD492 at dilution 1:1000000 [2]: 0.121 OD492
OD492 at dilution 1:10000000 [2]: 0.0632 OD492
